B1: LpxA expressed from pUT18C (enzyme)
chain: MIDKTAFIHPTAIVEEGAVIGANAHIGPFCIVGPDVKIGEGTVLKSHVVVNGHTTIGRDNEIYQFASIGEVNQDLKYAGEPTRVEIGDRNRIRESVTIHRGTAQGGGLTKVGSDNLLMINAHVAHDCTVGNRCILANNATLAGHVSVDDFAIIGGMTAVHQFCIIGAHVMVGGCSGVAQDVPPYVIAQGNHATPFGVNIEGLKRRGFSKEALHAIRNAYKLLYRSGKTLDEVKPEIAEIAAKHPEVQPFYDFFARSTRGLIR

Tests used:
[1] = biological target: His-LpxA (C. sakazakii) (UniProt A7MI18)
[2] = biological target: Labp V94A expressed from pKT25 (C. sakazakii); assay: two-hybrid; bacterial adenylate cyclase-based two-hybrid (BACTH) in E. coli BTH101, pKT25 and pUT18C fusions, β-galactosidase activity in Miller units

Molecule	LpxA enzymatic activity: fluorescence of ThioGlo-ACP conjugates (RFU) with UDP-GlcNAc and R-3-hydroxymyristoyl-ACP; 10 nM LpxA with 300 nM His-CSK29544 02616 against LpxA alone [1] [fold]	fold reduction in ß-galactosidase activity compared to intact Labp [2] [fold]
His-CSK29544_02616 (His×6-tagged CSK29544_02616 product, Labp) (natural protein)	2	
B1		4

Source: publication PMC5770445
